# System: N.BstNBI nicking endonuclease
# Test: cleavage_in_vitro
# Conditions: duplex 2; repeat 9a 21.3
row,Sequence,activity (relative mass units)
1,CCTACGACTGGAACAATAAAACCTACGACTGGA / TCCAGTCGTAGGTGAGTCTGTTCCAGTCGTAGG [Duplex 2/9a T-1/B-2 5 mismatches],18.5

# Same assay, conditions: duplex 7; repeat 8a 23.4
row,Sequence,activity (relative mass units)
1,CCTACGACTGGAACAGTAACACCTACGACTGGA / TCCAGTCGTAGGTGAGTCTGTTCCAGTCGTAGG [Duplex 7/8a T-1/B-7 3 mismatches],21.2

# Same assay, conditions: duplex 9f; 9k printed with same T strand gave 22.6
row,Sequence,activity (relative mass units)
1,CCTACGACTGGAACAATAAAACCTACGACTGGA / TCGTAGGTGAGTCTGTTCCAGTCGTAGG [Duplex 9f/9k T-1f/B-2],15.9

# Same assay, conditions: duplex 9g; 9l printed with same strands gave 22.5
row,Sequence,activity (relative mass units)
1,CCTACGACTGGAACAATAAAACCTACGACTGGA / CGTAGGTGAGTCTGTTCCAGTCGTAGG [Duplex 9g/9l T-1g/B-2],28.3

# Same assay, conditions: nicking coupled to Vent exo- extension, LC/MS of released fragment, Mg2+, trehalose, 60 C 1 h
row,Sequence,activity (relative mass units)
1,CCTACGACTGGAACAGACTCACCTACGACTGGA (double strand) [Duplex 1 T-1/B-1 perfect],121

# Same assay, conditions: same conditions
row,Sequence,activity (relative mass units)
1,CCTACGACTGGAACAATAAAACCTACGACTGGA / AGGTGAGTCTGTTCCAGTCGTAGG [Duplex 9j T-1j/B-2],21.4
2,CCTACGACTGGAACAATAAAACCTACGACTGGA / AGTCGTAGGTGAGTCTGTTCCAGTCGTAGG [Duplex 9d T-1d/B-2],15.3
3,CCTACGACTGGAACAATAAAACCTACGACTGGA / CAGTCGTAGGTGAGTCTGTTCCAGTCGTAGG [Duplex 9c T-1c/B-2],19.2
4,CCTACGACTGGAACAATAAAACCTACGACTGGA / CCAGTCGTAGGTGAGTCTGTTCCAGTCGTAGG [Duplex 9b T-1b/B-2],17.8
5,CCTACGACTGGAACAATAAAACCTACGACTGGA / GAGTCTGTTCCAGTCGTAGG [Duplex 9n T-1n/B-2],14.3
6,CCTACGACTGGAACAATAAAACCTACGACTGGA / GTAGGTGAGTCTGTTCCAGTCGTAGG [Duplex 9h T-1h/B-2],22.7
7,CCTACGACTGGAACAATAAAACCTACGACTGGA / GTCGTAGGTGAGTCTGTTCCAGTCGTAGG [Duplex 9e T-1e/B-2],14
8,CCTACGACTGGAACAATAAAACCTACGACTGGA / TAGGTGAGTCTGTTCCAGTCGTAGG [Duplex 9i T-1i/B-2],23.9
9,CCTACGACTGGAACAATAAAACCTACGACTGGA / TGAGTCTGTTCCAGTCGTAGG [Duplex 9m T-1m/B-2],13.5
10,CCTACGACTGGAACAGAAACACCTACGACTGGA / TCCAGTCGTAGGTGAGTCTGTTCCAGTCGTAGG [Duplex 6 T-1/B-6 2 mismatches],45
11,CCTACGACTGGAACAGACACACCTACGACTGGA / TCCAGTCGTAGGTGAGTCTGTTCCAGTCGTAGG [Duplex 4 T-1/B-4 1 mismatch],61.5
12,CCTACGACTGGAACAGATTCACCTACGACTGGA / TCCAGTCGTAGGTGAGTCTGTTCCAGTCGTAGG [Duplex 3 T-1/B-3 1 mismatch],66.7
13,CCTACGACTGGAACAGTAACACCTACGACTGGA / AGGTGAGTCTGTTCCAGTCGTAGG [Duplex 8j T-1j/B-7],18.3
14,CCTACGACTGGAACAGTAACACCTACGACTGGA / AGTCGTAGGTGAGTCTGTTCCAGTCGTAGG [Duplex 8d T-1d/B-7],29.2
15,CCTACGACTGGAACAGTAACACCTACGACTGGA / CAGTCGTAGGTGAGTCTGTTCCAGTCGTAGG [Duplex 8c T-1c/B-7],11.5
16,CCTACGACTGGAACAGTAACACCTACGACTGGA / CCAGTCGTAGGTGAGTCTGTTCCAGTCGTAGG [Duplex 8b T-1b/B-7],28.3
17,CCTACGACTGGAACAGTAACACCTACGACTGGA / CGTAGGTGAGTCTGTTCCAGTCGTAGG [Duplex 8g T-1g/B-7],20.8
18,CCTACGACTGGAACAGTAACACCTACGACTGGA / GAGTCTGTTCCAGTCGTAGG [Duplex 8n T-1n/B-7],12.5
19,CCTACGACTGGAACAGTAACACCTACGACTGGA / GGTGAGTCTGTTCCAGTCGTAGG [Duplex 8k T-1k/B-7],19.3
20,CCTACGACTGGAACAGTAACACCTACGACTGGA / GTAGGTGAGTCTGTTCCAGTCGTAGG [Duplex 8h T-1h/B-7],12.3
21,CCTACGACTGGAACAGTAACACCTACGACTGGA / GTCGTAGGTGAGTCTGTTCCAGTCGTAGG [Duplex 8e T-1e/B-7],14.6
22,CCTACGACTGGAACAGTAACACCTACGACTGGA / GTGAGTCTGTTCCAGTCGTAGG [Duplex 8l T-1l/B-7],15.6
23,CCTACGACTGGAACAGTAACACCTACGACTGGA / TAGGTGAGTCTGTTCCAGTCGTAGG [Duplex 8i T-1i/B-7],14.9
24,CCTACGACTGGAACAGTAACACCTACGACTGGA / TCGTAGGTGAGTCTGTTCCAGTCGTAGG [Duplex 8f T-1f/B-7],17.8
25,CCTACGACTGGAACAGTAACACCTACGACTGGA / TGAGTCTGTTCCAGTCGTAGG [Duplex 8m T-1m/B-7],18.3
26,CCTACGACTGGAACAGTCTCACCTACGACTGGA / TCCAGTCGTAGGTGAGTCTGTTCCAGTCGTAGG [Duplex 5 T-1/B-5 1 mismatch],63

# From patent US20030152952
